# According to patent US20180155451A1 (published 2018):
# T1: FcγRIIb extracellular domain with C-terminal His tag (human, UniProt P31994 43-217)
# T1 construct: extracellular domain; Soluble receptor expressed in FreeStyle293 cells, used as analyte in Biacore; also called FcgRIIb; 2b; not shown: His tag at the C terminus
# T1 sequence (looked up): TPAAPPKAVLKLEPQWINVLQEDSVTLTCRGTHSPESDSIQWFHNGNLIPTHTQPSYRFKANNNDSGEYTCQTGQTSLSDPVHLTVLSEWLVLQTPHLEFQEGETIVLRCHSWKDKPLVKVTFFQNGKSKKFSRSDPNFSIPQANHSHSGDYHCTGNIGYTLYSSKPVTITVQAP
# B1: GpH7-A5/GpH7-B3 variant P331_03V/GpL16-k0 (antibody, human IgG1, kappa)
# heavy 1: not shown
# heavy 2: not shown
# light: DIVMTQSPLSLPVTPGEPASISCQASESLVHSNRNTYLHWYLQKPGQSPQLLIYKVSNRFSGVPDRFSGSGSGTDFTLKISRVEAEDVGVYYCSQNTHVPPTFGQGTKVEIERTVAAPSVFIFPPSDEQLKSGTASVVCLLNNFYPREAKVQWKVDNALQSGNSQESVTEQDSKDSTYSLSSTLTLSKADYEKHKVYACEVTHQGLSSPVTKSFNRGEC
# notes: Heterodimerized anti-glypican-3 IgG1; P331V (EU) only in the GpH7-B3 chain; also called He Ab
# B2: GpH7-A5/GpH7-B3 variant L328_06M/GpL16-k0 (antibody, human IgG1, kappa)
# heavy 1: not shown
# heavy 2: not shown
# light: B1 light
# notes: Heterodimerized anti-glypican-3 IgG1; L328M (EU) only in the GpH7-B3 chain; also called He Ab
# B3: GpH7-A5/GpH7-B3 variant P331_08L/GpL16-k0 (antibody, human IgG1, kappa)
# heavy 1: not shown
# heavy 2: not shown
# light: B1 light
# notes: Heterodimerized anti-glypican-3 IgG1; P331L (EU) only in the GpH7-B3 chain; also called He Ab
# B4: GpH7-A5/GpH7-B3 variant P331_07I/GpL16-k0 (antibody, human IgG1, kappa)
# heavy 1: not shown
# heavy 2: not shown
# light: B1 light
# notes: Heterodimerized anti-glypican-3 IgG1; P331I (EU) only in the GpH7-B3 chain; also called He Ab
# B5: GpH7-A5/GpH7-B3 variant P331_15Y/GpL16-k0 (antibody, human IgG1, kappa)
# heavy 1: not shown
# heavy 2: not shown
# light: B1 light
# notes: Heterodimerized anti-glypican-3 IgG1; P331Y (EU) only in the GpH7-B3 chain; also called He Ab
# B6: GpH7-A5/GpH7-B3 variant L328_19Q/GpL16-k0 (antibody, human IgG1, kappa)
# heavy 1: not shown
# heavy 2: not shown
# light: B1 light
# notes: Heterodimerized anti-glypican-3 IgG1; L328Q (EU) only in the GpH7-B3 chain; also called He Ab
# B7: GpH7-A5/GpH7-B3 variant P331_10E/GpL16-k0 (antibody, human IgG1, kappa)
# heavy 1: not shown
# heavy 2: not shown
# light: B1 light
# notes: Heterodimerized anti-glypican-3 IgG1; P331E (EU) only in the GpH7-B3 chain; also called He Ab
# B8: GpH7-A5/GpH7-B3 variant L328_15Y/GpL16-k0 (antibody, human IgG1, kappa)
# heavy 1: not shown
# heavy 2: not shown
# light: B1 light
# notes: Heterodimerized anti-glypican-3 IgG1; L328Y (EU) only in the GpH7-B3 chain; also called He Ab
# B9: GpH7-A5/GpH7-B3 variant P331_06M/GpL16-k0 (antibody, human IgG1, kappa)
# heavy 1: not shown
# heavy 2: not shown
# light: B1 light
# notes: Heterodimerized anti-glypican-3 IgG1; P331M (EU) only in the GpH7-B3 chain; also called He Ab
# B10: GpH7-A5/GpH7-B3 variant L328_09D/GpL16-k0 (antibody, human IgG1, kappa)
# heavy 1: not shown
# heavy 2: not shown
# light: B1 light
# notes: Heterodimerized anti-glypican-3 IgG1; L328D (EU) only in the GpH7-B3 chain; also called He Ab
# B11: GpH7-A5/GpH7-B3 variant L328_10E/GpL16-k0 (antibody, human IgG1, kappa)
# heavy 1: not shown
# heavy 2: not shown
# light: B1 light
# notes: Heterodimerized anti-glypican-3 IgG1; L328E (EU) only in the GpH7-B3 chain; also called He Ab
# B12: GpH7-A5/GpH7-B3 variant L328_18N/GpL16-k0 (antibody, human IgG1, kappa)
# heavy 1: not shown
# heavy 2: not shown
# light: B1 light
# notes: Heterodimerized anti-glypican-3 IgG1; L328N (EU) only in the GpH7-B3 chain; also called He Ab
# B13: GpH7-A5/GpH7-B3 variant P331_04F/GpL16-k0 (antibody, human IgG1, kappa)
# heavy 1: not shown
# heavy 2: not shown
# light: B1 light
# notes: Heterodimerized anti-glypican-3 IgG1; P331F (EU) only in the GpH7-B3 chain; also called He Ab
# B14: GpH7-A5/GpH7-B3 variant P329_20W/GpL16-k0 (antibody, human IgG1, kappa)
# heavy 1: not shown
# heavy 2: not shown
# light: B1 light
# notes: Heterodimerized anti-glypican-3 IgG1; P329W (EU) only in the GpH7-B3 chain; also called He Ab
# B15: GpH7-A5/GpH7-B3 variant L328_13S/GpL16-k0 (antibody, human IgG1, kappa)
# heavy 1: not shown
# heavy 2: not shown
# light: B1 light
# notes: Heterodimerized anti-glypican-3 IgG1; L328S (EU) only in the GpH7-B3 chain; also called He Ab
# B16: GpH7-A5/GpH7-B3 variant P331_20W/GpL16-k0 (antibody, human IgG1, kappa)
# heavy 1: not shown
# heavy 2: not shown
# light: B1 light
# notes: Heterodimerized anti-glypican-3 IgG1; P331W (EU) only in the GpH7-B3 chain; also called He Ab
# B17: GpH7-A5/GpH7-B3 variant P331_14T/GpL16-k0 (antibody, human IgG1, kappa)
# heavy 1: not shown
# heavy 2: not shown
# light: B1 light
# notes: Heterodimerized anti-glypican-3 IgG1; P331T (EU) only in the GpH7-B3 chain; also called He Ab
# Biological target: T2, FcγRIIIa extracellular domain with C-terminal His tag (human, UniProt P08637 17-208)
# T2 construct: extracellular domain; also called FcgRIIIa; 3a; not shown: His tag at the C terminus
# T2 sequence (P08637 17-208): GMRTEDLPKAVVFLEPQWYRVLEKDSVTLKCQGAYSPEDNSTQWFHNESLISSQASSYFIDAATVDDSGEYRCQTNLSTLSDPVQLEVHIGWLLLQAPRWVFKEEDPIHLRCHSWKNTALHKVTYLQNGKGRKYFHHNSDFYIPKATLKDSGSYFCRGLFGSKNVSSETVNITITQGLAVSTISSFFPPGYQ
# Experiment: SPR (Biacore), antibody captured on antigen peptide chip, FcγR as analyte
# Description: (§1) Analysis of interaction between objective antibody and the FcγR was carried out using Biacore T100 (GE Healthcare). HBS-EP+ (GE Healthcare) was used as the running buffer, and the measurement temperature was set to 25° C. Chips produced by immobilizing the antigen peptide by the amine coupling method to a Series S Sencor Chip CM5 (GE Healthcare), or alternatively, chips produced by allowing preliminarily biotinylated antigen peptides to interact with and immobilize onto a Series S Sensor Chip SA (certified) (GE Healthcare) were used. Antibodies of interest were captured onto an antigen peptide-immobilized chip, and allowed to interact to each FcγR diluted with running buffer. To regenerate and repeatedly use the chip, the antibodies captured on the chip were washed off by reacting 10 mM glycine-HCl, pH 1.5.
# (§2) The FcγR-binding activity of each antibody was assessed primarily using as an indicator the FcγR-binding activity and dissociation constant for FcγR.
row,He/Con_3a,Binder
1,73.2 relative binding (GpH7-A5/GpH7-B3/GpL16-k0 = 100),B1
2,78.6 relative binding (GpH7-A5/GpH7-B3/GpL16-k0 = 100),B2
3,72.1 relative binding (GpH7-A5/GpH7-B3/GpL16-k0 = 100),B3
4,66 relative binding (GpH7-A5/GpH7-B3/GpL16-k0 = 100),B4
5,81.9 relative binding (GpH7-A5/GpH7-B3/GpL16-k0 = 100),B5
6,81.1 relative binding (GpH7-A5/GpH7-B3/GpL16-k0 = 100),B6
7,75.1 relative binding (GpH7-A5/GpH7-B3/GpL16-k0 = 100),B7
8,68.3 relative binding (GpH7-A5/GpH7-B3/GpL16-k0 = 100),B8
9,74.8 relative binding (GpH7-A5/GpH7-B3/GpL16-k0 = 100),B9
10,47.8 relative binding (GpH7-A5/GpH7-B3/GpL16-k0 = 100),B10
11,53.4 relative binding (GpH7-A5/GpH7-B3/GpL16-k0 = 100),B11
12,49.7 relative binding (GpH7-A5/GpH7-B3/GpL16-k0 = 100),B12
13,77.3 relative binding (GpH7-A5/GpH7-B3/GpL16-k0 = 100),B13
14,31.7 relative binding (GpH7-A5/GpH7-B3/GpL16-k0 = 100),B14
15,71.7 relative binding (GpH7-A5/GpH7-B3/GpL16-k0 = 100),B15
16,78.6 relative binding (GpH7-A5/GpH7-B3/GpL16-k0 = 100),B16
17,74.1 relative binding (GpH7-A5/GpH7-B3/GpL16-k0 = 100),B17

# Biological target: T1, FcγRIIb extracellular domain with …
# Experiment: as above
# Description: as §1, §2
row,He/Con_2b,Binder
1,119 relative binding (GpH7-A5/GpH7-B3/GpL16-k0 = 100),B1
2,142 relative binding (GpH7-A5/GpH7-B3/GpL16-k0 = 100),B2
3,95.7 relative binding (GpH7-A5/GpH7-B3/GpL16-k0 = 100),B3
4,114 relative binding (GpH7-A5/GpH7-B3/GpL16-k0 = 100),B4
5,114 relative binding (GpH7-A5/GpH7-B3/GpL16-k0 = 100),B5
6,105 relative binding (GpH7-A5/GpH7-B3/GpL16-k0 = 100),B6
7,116 relative binding (GpH7-A5/GpH7-B3/GpL16-k0 = 100),B7
8,193 relative binding (GpH7-A5/GpH7-B3/GpL16-k0 = 100),B8
9,102 relative binding (GpH7-A5/GpH7-B3/GpL16-k0 = 100),B9
10,199 relative binding (GpH7-A5/GpH7-B3/GpL16-k0 = 100),B10
11,172 relative binding (GpH7-A5/GpH7-B3/GpL16-k0 = 100),B11
12,80.8 relative binding (GpH7-A5/GpH7-B3/GpL16-k0 = 100),B12
13,110 relative binding (GpH7-A5/GpH7-B3/GpL16-k0 = 100),B13
14,45.1 relative binding (GpH7-A5/GpH7-B3/GpL16-k0 = 100),B14
15,149 relative binding (GpH7-A5/GpH7-B3/GpL16-k0 = 100),B15
16,111 relative binding (GpH7-A5/GpH7-B3/GpL16-k0 = 100),B16
17,99.8 relative binding (GpH7-A5/GpH7-B3/GpL16-k0 = 100),B17

# Biological target: T2, FcγRIIIa extracellular domain with …
# Experiment: SPR; He/Con_3a divided by He/Con_2b (FcγRIIIa over FcγRIIb)
# Description: as §1, §2
row,He_3a/2b (IIIa/IIb) [ratio],Binder
1,0.62,B1
2,0.56,B2
3,0.75,B3
4,0.58,B4
5,0.72,B5
6,0.77,B6
7,0.65,B7
8,0.35,B8
9,0.74,B9
10,0.24,B10
11,0.31,B11
12,0.61,B12
13,0.7,B13
14,0.7,B14
15,0.48,B15
16,0.71,B16
17,0.74,B17
